Experimental data taken from publication PMC6346094.

Target: Gβγ (bovine) (UniProt P62871)

decrease of GIRK1* current (two-electrode voltage clamp, Xenopus oocytes coexpressing GIRK1* and Gβγ) 40-50 min after injection of purified His-phosducin to ~23 µM: 74%
Substance: His-tagged phosducin (from UniProt P19632 1-245) (natural protein)
